Assay results as given in paper doi:10.1101/2021.05.27.445985.

Target: Cy5-labeled human neutrophil peptide 1 (HNP1) (human)
Experiment: fluorescence polarisation

Substance “Bovine serum albumin (from UniProt P02769 25-607) (natural protein)” has a Kd of 3.4 µM.
